Laboratory results: the supplement of paper PMC9170038

Tested on: MS2 coat protein
Experiment: apparent KD of MS2 coat protein; higher = weaker reporter binding
Conditions: Eterna round: R107
In short: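 Apparent KD is reported per design as the median of normalised binding-curve fits across its clusters. The RNA switches were made by on-chip transcription from Illumina sequencing clusters. SNAP-549-labelled MS2 coat protein was then added in twofold steps (0.7 or 1.5 nM to 3 µM; 0.8–1.5 h to 10–20 min per step) in 100 mM Tris-HCl pH 7.5, 80 mM KCl, 4 mM MgCl2, without or with constant ligand.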

[1] = input ligand: theophylline 20 uM
[2] = input ligand: theophylline 2 mM
[3] = input ligand: tryptophan 2.4 mM

Sequence | apparent KD of MS2 coat protein (input ligand: arginine 13.2 mM) [nM] | apparent KD of MS2 coat protein (input ligand: none) [nM] | apparent KD of MS2 coat protein [1] [nM] | apparent KD of MS2 coat protein [2] [nM] | apparent KD of MS2 coat protein [3] [nM]
UCGCUCUGGGUGAAUCCCAGAGAUGUGGAAGGAGCGGAGGAAACUCCAGGUAGGUCGCCAUCGAACAUGAGGAUCACCCAUGUAC [Same State - Arginine A (Freestyle 28)] | 35.6 | 56.8 | 60.7 | 66.4 | 46.4
CGCCACAUGAGGAUCACCCAUGUAAUGGCGCGAGGACCGGUACGGCCGCCACUCGCCUGGCAGUGAGCGCAUGCGGCCUGGGUAU [Exclusion Tryp A GF9] | 12.2 | 10.6 | 13.3 | 14.4 | 13.3
AAUAAUAGGUGAUCUUGUGUCGUACCGUAACGAGGACCGGUACGGCCGCCACUCGAACAUGAGGAUCACCCAUGUAUGUAUGAUA [whbob_SS_trypto A_f7] | 57.8 |  | 301 | 497 | 
CAAUACGUAACUGAUACCAGUGUACUGACAUGAGGAUCACCCAUGUUGGGUUUUGUUGUACACCCUUGGCAGCAGAAUCGUAUUG [AstrosExyTheB#11] | 46.7 |  | 79.4 |  | 66.3
CGGUUUGUGAUGGAUACCAGCAGAGAAAAUGUUUAUCCUGACAUGAGGAUCACCCAUGUGUGCCCUUGGCAGCUGUUGUGGGCUG [8.X] | 57.3 |  | 85.7 |  | 51.1
UAAUAAAUAAAUCCAAGGUGAAGGUCAGAUACCAGCCAGAUAACUGGCCCUUGGCAGCUGAAUAAACUUGAGGAUCACCCAGGUA [TheoAS 27 #OpenEnded #MS2Late #AlternativeMS2] | 45.4 | 63.1 | 135 | 548 | 55.6
GGUGGGACUUGUGAUACCAGCCCAGUUCUAAUCGAACUGCACAUGAGGAUCACCCAUGUCGGCCCUUGGCAGCAUGAGUAUUUAU [Esceesor] | 146 |  | 160 |  | 326
UUAUAAGUACCGGUCCUCAGAUCCUCAUGACGAGGACCGGUACGGCCGCCACUCGAAACAUGAGGAUCACCCAUGUAAUAAUAUU [Brourdmod07] | 16 |  | 25.3 | 23.3 | 
AAUCGUAAGGCGGCCGCCACUACACAUGAGGAUCACCCAUGUCUCGCGGGCUUGCGUUGGGAUAGUAGGACCGGGCCAGUAAUAA [Exclusion - Tryptophan B (Freestyle 13)] | 17.1 | 26.2 | 33.7 | 28.3 | 25.1
ACGUCCGGUUUACUCGUGGGCAUGGUCGAUACCAGUAUUUUAAUCUACCCUUGGCAGCGACAUGAGGAUCACCCAUGUGCGAAGA [XTheo A #21] | 21.5 |  | 30.6 |  | 22.8
AUCGGCAGAAAAGAUACCAGAGUAAUACACAACAUGAGGAUCACCCAUGUACGGACAAUCCUCCCUUGGCAGCUUGUAACAGUAU [theeternabot_sameState_MS2_Theo_B_32] | 37.4 |  | 63.8 |  | 48
GGAGUAGAUGCGGCCGCCACUUUCUCAAGACACUACAUGAGGAUCACCCAUGUCCAUUCUACACUAAGGACCGGGCAUCCCAUGG [Alaa] | 36.8 |  | 182 | 192 | 
AGACAUGAGGAUCACCCAUGUGAAGUGGAUACCAGCCGCAGCGAUGGCCCUUGGCAGCCAGCUUUGUGUCGAUACAUCCGCACUU [theeternabot_exclusion_MS2_Theo_A_2] | 16.9 |  | 22.9 |  | 18.1
GGUGGCUGGAUUGAUACCAGCCACCACCGAUAGACCACAUGAGGAUCACCCAUGUUGGGUGGCCCUUGGCAGCAGUCCAGCUGCC [#1 Same State - Theophylline B Attempt #9 (HarryS)] | 70.5 | 388 | 649 | 828 | 886
GGCCCACAUGAGGAUCACCCAUGUGUGGAUACCAGCCUCAUUUAGGGCCCUUGGCAGCCAGAUAGUAACAAGUCCGAAACACAGA [theeternabot_sameState_MS2_Theo_A_24] | 26.2 |  | 203 |  | 144
GAGUACACUACGGCCGCCACUCAAGGAGCUACAUAGCUCCUAGACAUGAGGAUCACCCAUGUACCGAGGACCGGGUAGAUCCUUA [Same State Typrtophan B GF2] | 129 |  | 246 | 294 | 
ACAUGAGGAUCACCCAUGUAGCCUAGGGAAGGAGCGGCGUAAGAGCCAGGUAGGUCGCCCGCAUGAGGAUCACCCAUGUCGAGGG [Same State Arginine A GF10] | 30.9 | 38 | 40.9 | 33.1 | 29.3
UAGGUGAUCUUCAACGGAAAACGUUGUGAUACCAGCCAACAAUACGGCCCUUGGCAGCACAUGAGGAUCACCCAUGUGUACACCG [Vetizaatdi] | 25.6 |  | 48.7 |  | 30.6
